Data from patent US8173771B2, “Humanin receptor or humanin-like polypeptide receptor” (Keio Univeristy, priority 2005, dated 2012).
Blank lines part the entries; values can stand above or below the binder they belong to. Ends that are not written are not given here.

Legend:
myc-tagged mouse CREME9 = target: T1, myc-tagged mouse CREME9 (mouse, UniProt Q9Z2L7 1-442); assay: immunofluorescence-based HN binding assay (1) on F11 cells overexpressing CREME9 and human gp130
T1 construct: whole, on cells; Methods say mouse CREME9; Co-expressed with human gp130 in F11 cells; also called CRL4; pEF-mycHis CREME9; not shown: myc-His tag
T1 sequence (looked up): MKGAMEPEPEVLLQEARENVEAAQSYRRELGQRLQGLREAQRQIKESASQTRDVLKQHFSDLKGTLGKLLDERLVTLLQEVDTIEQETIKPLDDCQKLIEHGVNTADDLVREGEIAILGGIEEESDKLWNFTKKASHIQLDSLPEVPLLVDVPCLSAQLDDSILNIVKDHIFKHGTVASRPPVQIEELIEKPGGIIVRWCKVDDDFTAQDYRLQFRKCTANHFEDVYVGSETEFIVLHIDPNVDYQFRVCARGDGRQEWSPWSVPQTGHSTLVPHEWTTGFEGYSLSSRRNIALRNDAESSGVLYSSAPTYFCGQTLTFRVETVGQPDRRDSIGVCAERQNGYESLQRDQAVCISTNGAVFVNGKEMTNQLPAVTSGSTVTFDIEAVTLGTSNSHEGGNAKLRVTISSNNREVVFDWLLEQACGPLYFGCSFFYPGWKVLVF
Method: B) F11 cells were transfected with 0.5 µg of pEF-myc His human CREME9 or pEF-mycHis human WSX-1 in association with 0.5 µg of pCAG-human gp130. […] Fluorescence signals were detected with a laser-scanning, confocal microscope LSM (Carl Zeiss, Germany) (right panels).
(§1) F11 cells (7×10^4/well in 6-well plates) were replated into 96-well plates (7×10^3 cells/well) at 24 hrs after transfection with indicated amounts of the plasmids encoding mycHis-WSX or V5-CNTF-R, and with PCAG-human gp130 if required. […] After 6 hrs incubation, they were fixed with 4% paraformaldehyde in PBS for 30 min. After washing with PBS, cells were stained with FITC-conjugated avidin (Molecularprobe, Eugene, Oreg., USA). Immunofluorescence intensity was measured (excitation=485 nm, emission=535 nm) with a spectrofluorometer (Wallac1420 ARVOsx Multi Label Counter). Immunohistochemical analysis was done with a laser-scanning, confocal microscope LSM (Carl Zeiss, Germany).

[1] = target: T2, Humanin receptor (HNR) overexpressed in F11 cells: human CNTF-R/WSX-1/gp130 (human, UniProt P26992 23-342; Q6UWB1 33-636; P40189 23-918); assay: cold competitor in binding assay (2), F11 cells transfected with human CNTF-R/WSX-1/gp130
T2 construct: whole, on cells; The three human subunits co-transfected into F11 cells, which also carry the endogenous receptor; also called both the CNTF receptor and WSX-1; not shown: C-terminal V5 tag; C-terminal myc-His tag
Method: A) F11 cells were seeded on 96-well plates coated with poly-L-lysine (7 ×10^3 cells/well). […] On the other hand, F11 cells were transfected with 0.5 μg of pcDNA3.1/GS-human CNTF-R, pEF1/MycHis-human WSX-1, and 1.0 μg of pCAG-human gp130. At 24 hrs after the transfection, the cells were re-seeded on 96-well plates coated with poly-L-lysine (7 ×10^3 cells/well).
as §1

rat IL-6R [2] = target: T3, rat IL-6R (rat, UniProt P22273 20-462); assay: pull-down with HN-Sepharose 4B from lysates of transfected F11 cells, immunoblot
T3 construct: Overexpressed in F11 cells; stood in the cell lysate in the pull-down assay; also called IL-6 receptor; rat IL-6R (V6 tagged); not shown: printed as 'V6 tagged'
T3 sequence (looked up): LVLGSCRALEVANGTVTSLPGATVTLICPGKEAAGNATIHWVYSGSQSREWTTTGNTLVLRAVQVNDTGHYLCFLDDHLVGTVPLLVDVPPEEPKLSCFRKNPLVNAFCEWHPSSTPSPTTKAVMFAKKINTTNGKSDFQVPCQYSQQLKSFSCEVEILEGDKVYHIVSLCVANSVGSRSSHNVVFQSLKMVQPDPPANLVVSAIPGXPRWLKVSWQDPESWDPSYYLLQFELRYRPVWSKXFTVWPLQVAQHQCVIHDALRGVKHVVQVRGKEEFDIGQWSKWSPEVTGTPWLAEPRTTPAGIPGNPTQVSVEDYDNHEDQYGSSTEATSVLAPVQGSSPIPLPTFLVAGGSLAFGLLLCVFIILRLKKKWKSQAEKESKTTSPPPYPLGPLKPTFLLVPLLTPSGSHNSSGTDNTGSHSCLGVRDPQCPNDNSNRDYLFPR
Method: (§2) WSX-1, CNTF-R, and IL-6 were over-expressed in F11 cells and the pull down assay was made using the above 4B bead.
(§3) F11 cells (7×10^4/well in 6-well plates) were transfected with the plasmids encoding mycHis-WSX-1, V5-CNTF-R or rat IL-6R (V6 tagged). […] The beads were then reacted with a blocking buffer (0.2M glycine, pH 8.0) for 2 hrs at a room temperature, washed with the coupling buffer and stored at 4° C. for use in pull-down assay. For each pull-down assay, 20 μl of 1:1 slurry of Sepharose was used for 100 μl of the cell lysate.

[3] = target: T4, C-terminally V5-tagged human CNTF-R (V5-CNTF-R) (human, UniProt P26992 23-342); assay: pull-down with HNA-Sepharose 4B from lysates of transfected F11 cells, immunoblot
T4 construct: whole, on cells; in the pull-down and co-immunoprecipitation it stood in cell lysates; also called human CNTF receptor; CNTF receptor alpha chain; not shown: C-terminal V5 tag
T4 sequence (looked up): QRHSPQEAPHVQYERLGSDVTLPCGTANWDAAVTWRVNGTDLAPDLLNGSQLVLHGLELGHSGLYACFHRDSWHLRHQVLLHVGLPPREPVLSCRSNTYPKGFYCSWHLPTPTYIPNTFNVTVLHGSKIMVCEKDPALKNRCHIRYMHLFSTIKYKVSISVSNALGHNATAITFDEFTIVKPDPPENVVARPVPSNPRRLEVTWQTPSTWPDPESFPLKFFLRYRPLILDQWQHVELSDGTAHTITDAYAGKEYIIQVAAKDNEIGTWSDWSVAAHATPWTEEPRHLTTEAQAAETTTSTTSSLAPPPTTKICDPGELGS
Method: as §2, §3

[4] = target: T5, C-terminally myc-tagged human WSX-1 (mycHis-WSX-1) (human, UniProt Q6UWB1 33-636); assay: as above
T5 construct: whole, on cells; in the pull-down and co-immunoprecipitation it stood in cell lysates; also called myc-WSX-1; IL-27 receptor; not shown: C-terminal myc-His tag of the pEF-mycHis vector
T5 sequence (looked up): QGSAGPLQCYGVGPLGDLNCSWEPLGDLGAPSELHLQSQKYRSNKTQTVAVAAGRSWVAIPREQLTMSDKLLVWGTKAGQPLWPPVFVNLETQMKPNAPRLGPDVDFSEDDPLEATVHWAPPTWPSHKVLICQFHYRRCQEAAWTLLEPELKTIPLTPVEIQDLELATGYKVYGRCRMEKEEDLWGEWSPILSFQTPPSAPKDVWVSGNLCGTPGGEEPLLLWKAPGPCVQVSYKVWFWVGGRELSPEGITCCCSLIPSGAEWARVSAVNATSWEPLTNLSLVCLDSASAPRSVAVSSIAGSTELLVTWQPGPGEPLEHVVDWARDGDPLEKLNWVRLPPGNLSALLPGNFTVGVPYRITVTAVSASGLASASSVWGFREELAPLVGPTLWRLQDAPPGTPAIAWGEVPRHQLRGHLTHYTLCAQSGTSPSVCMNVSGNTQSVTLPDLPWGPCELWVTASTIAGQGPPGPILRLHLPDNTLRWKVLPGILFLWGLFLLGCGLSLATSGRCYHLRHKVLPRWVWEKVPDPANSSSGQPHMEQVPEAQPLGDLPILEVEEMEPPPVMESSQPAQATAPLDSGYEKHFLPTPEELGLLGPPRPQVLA
Method: as §2, §3

rat IL-6R [5] = target: T3, rat IL-6R; assay: as above
Method: as §2, §3

T2 sequence (P40189 23-918, one chain of several): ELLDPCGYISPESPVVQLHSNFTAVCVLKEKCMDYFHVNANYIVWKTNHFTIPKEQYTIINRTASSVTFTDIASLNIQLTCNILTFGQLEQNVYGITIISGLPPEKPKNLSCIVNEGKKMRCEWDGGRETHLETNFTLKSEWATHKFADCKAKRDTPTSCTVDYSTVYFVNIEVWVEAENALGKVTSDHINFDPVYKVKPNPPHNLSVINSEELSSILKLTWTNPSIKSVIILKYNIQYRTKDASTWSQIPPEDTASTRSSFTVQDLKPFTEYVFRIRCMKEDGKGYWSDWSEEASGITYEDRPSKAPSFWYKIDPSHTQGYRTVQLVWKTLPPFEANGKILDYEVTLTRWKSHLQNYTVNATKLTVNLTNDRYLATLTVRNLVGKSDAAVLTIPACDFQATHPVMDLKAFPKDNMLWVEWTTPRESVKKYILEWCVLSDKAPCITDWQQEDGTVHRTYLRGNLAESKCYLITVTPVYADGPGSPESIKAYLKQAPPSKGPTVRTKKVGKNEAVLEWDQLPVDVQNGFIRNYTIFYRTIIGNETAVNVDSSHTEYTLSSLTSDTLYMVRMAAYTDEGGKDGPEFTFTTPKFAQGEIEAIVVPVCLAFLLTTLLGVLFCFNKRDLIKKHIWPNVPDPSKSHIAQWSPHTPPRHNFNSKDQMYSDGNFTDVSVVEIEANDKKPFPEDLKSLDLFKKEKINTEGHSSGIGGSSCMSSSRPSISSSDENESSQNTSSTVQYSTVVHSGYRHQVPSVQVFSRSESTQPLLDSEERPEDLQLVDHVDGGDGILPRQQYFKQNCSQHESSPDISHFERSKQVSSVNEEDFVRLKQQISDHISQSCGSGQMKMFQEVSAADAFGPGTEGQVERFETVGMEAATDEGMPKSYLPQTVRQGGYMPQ

binding result (myc-tagged mouse CREME9): no binding (tested: 100 nM)
B1: biotin-labeled HNG-FLAG (peptide)
peptide: MAPRGFSCLLLLTGEIDLPVKRRA
modifications: also: biotin label, position not given here, FLAG tag, sequence and position not given here
notes: the identity is therefore uncertain; not shown: FLAG tag

binding result [1]: binds
binding result (rat IL-6R [2]): no binding
B2: Humanin (HN) (peptide)
peptide: MAPRGFSCLLLLTSEIDLPVKRRA
notes: Synthetic 24-residue peptide; elsewhere it was used free and unlabeled; also called synthetic Humanin

binding result [3]: no binding
binding result [4]: no binding
binding result (rat IL-6R [5]): no binding
B3: C8A-Humanin (HNA) (peptide)
peptide: MAPRGFSALLLLTSEIDLPVKRRA
notes: Synthetic peptide, HN mutant with null activity used as negative control; also called C8A-HN
